Columns and labels:
[1] = biological target: maltose binding protein (MBP)

Chain of p53, P04637 (P04637 whole entry, looked up): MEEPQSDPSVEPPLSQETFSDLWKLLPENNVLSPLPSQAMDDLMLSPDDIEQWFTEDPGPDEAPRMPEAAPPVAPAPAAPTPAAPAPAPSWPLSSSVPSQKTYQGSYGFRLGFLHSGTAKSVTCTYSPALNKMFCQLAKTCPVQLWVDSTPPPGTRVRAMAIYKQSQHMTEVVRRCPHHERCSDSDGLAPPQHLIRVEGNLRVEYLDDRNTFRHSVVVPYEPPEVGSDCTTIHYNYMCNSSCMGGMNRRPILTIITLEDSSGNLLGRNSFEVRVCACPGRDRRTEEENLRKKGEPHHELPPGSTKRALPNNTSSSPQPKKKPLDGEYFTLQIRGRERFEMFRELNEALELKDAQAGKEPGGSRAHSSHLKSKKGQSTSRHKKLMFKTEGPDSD

| Protein | kinase activity (32P-ATP kinase reaction) (p53, P04637) | kinase activity (32P-ATP kinase reaction) [1] |
| --- | --- | --- |
| GST-CNK (wild type CNK fused to GST, produced in E. coli) (protein) MLAGLPTSDPGRLITDPRSGRTYLKGRLLGKGGFARCYEATDTETGSAYAVKVIPQSRVAKPHQREKILNEIELHRDLQHRHIVRFSHHFEDADNIYIFLELCSRKSLAHIWKARHTLLEPEVRYYLRQILSGLKYLHQRGILHRDLKLGNFFITENMELKVGDFGLAARLEPPEQRKKTICGTPNYVAPEVLLRQGHGPEADVWSLGCVMYTLLCGSPPFETADLKETYRCIKQVHYTLPASLSLPARQLLAAILRASPRDRPSIDQILRHDFFTKGYTPDRLPISSCVTVPDLTPPNPARSLFAKVTKSLFGRKKKSKNHAQERDEVSGLVSGLMRTSVGHQDARPEAPAASGPAPVSLVETAPEDSSPRGTLASSGDGFEEGLTVATVVESALCALRNCIAFMPPAEQNPAPLAQPEPLVWVSKWVDYSNKFGFGYQLSSRRVAVLFNDGTHMALSANRKTVHYNPTSTKHFSFSVGAVPRALQPQLGILRYFASYMEQHLMKGGDLPSVEEVEVPAPPLLLQWVKTDQALLMLFSDGTVQVNFYGDHTKLILSGWEPLLVTFVARNRSACTYLASHLRQLGCSPDLRQRLRYALRLLRDRSPA | Wild type GST-CNK phosphorylated p53, maltose binding protein (MBP) and also exhibited autophosphorylation activity. | Wild type GST-CNK phosphorylated p53, maltose binding protein (MBP) and also exhibited autophosphorylation activity. |
| GST-CNK D146A mutant (protein) MLAGLPTSDPGRLITDPRSGRTYLKGRLLGKGGFARCYEATDTETGSAYAVKVIPQSRVAKPHQREKILNEIELHRDLQHRHIVRFSHHFEDADNIYIFLELCSRKSLAHIWKARHTLLEPEVRYYLRQILSGLKYLHQRGILHRALKLGNFFITENMELKVGDFGLAARLEPPEQRKKTICGTPNYVAPEVLLRQGHGPEADVWSLGCVMYTLLCGSPPFETADLKETYRCIKQVHYTLPASLSLPARQLLAAILRASPRDRPSIDQILRHDFFTKGYTPDRLPISSCVTVPDLTPPNPARSLFAKVTKSLFGRKKKSKNHAQERDEVSGLVSGLMRTSVGHQDARPEAPAASGPAPVSLVETAPEDSSPRGTLASSGDGFEEGLTVATVVESALCALRNCIAFMPPAEQNPAPLAQPEPLVWVSKWVDYSNKFGFGYQLSSRRVAVLFNDGTHMALSANRKTVHYNPTSTKHFSFSVGAVPRALQPQLGILRYFASYMEQHLMKGGDLPSVEEVEVPAPPLLLQWVKTDQALLMLFSDGTVQVNFYGDHTKLILSGWEPLLVTFVARNRSACTYLASHLRQLGCSPDLRQRLRYALRLLRDRSPA | The GST-CNK D146A mutant did not exhibit kinase activity. | The GST-CNK D146A mutant did not exhibit kinase activity. |
